# Where a chain is given by its changes, count along the chain named. Numbers in names are those of the source.
# B1: Stage 2 (Ser mutant) humanized anti-VLA-4 antibody with VK1 (DQL) light chain (antibody, V domains shown)
# VH: QVQLQESGPGLVRPSQTLSLTCTVSGFNIKDTYMHWVRQPPGRGLEWIGRIDPASGDTKYDPKFQVRVTMLVDTSSNQFSLRLSSVTAADTAVYYCADGMWVSTGYALDFWGQGTTVTVSS
# VL: DIQLTQSPSSLSASVGDRVTITCKASQSVTNDVAWYQQKPGKAPKLLIYYASNRYTGVPSRFSGSGSGTDFTFTISSLQPEDIATYYCQQDYSSPYTFGQGTKVEIKR
# notes: Human IgG1 or IgG4 / kappa; also called Sage 2 (Ser mutant); S mutant
# B2: Stage 0-B humanized anti-VLA-4 antibody with VK1 (DQL) light chain (antibody, V domains shown)
# VH: B1 VH with N28T, I29F, K30S, S76K
# VL: DIQLTQSPSSLSASVGDRVTITCKASQSVTNDVAWYQQKPGKAPKLLIYYASNRYTGVPSRFSGSGSGTDFTFTISSLQPEDIATYYCQQDYSSPYTFGQGTKVEIK
# notes: Human IgG1 or IgG4 heavy and human kappa constant regions; also called STAGE O-B; Stage 0 (Humanized heavy chain)
# B3: humanized heavy chain of the Stage 2 construct (the Ser mutant) with murine light chain (antibody, V domains shown)
# VH: B1 VH
# VL: SIVMTQTPKFLLVSAGDRVTITCKASQSVTNDVAWYQQKPGQSPKLLIYYASNRYTGVPDRFTGSGYGTDFTFTISTVQAEDLAVYFCQQDYSSPYTFGGGTKLEI
# notes: also called Stage 2 heavy chain / murine light chain
# B4: Stage 1 humanized anti-VLA-4 antibody with VK1 (DQL) light chain (antibody, V domains shown)
# VH: B1 VH with S76K
# VL: B1 VL
# notes: Purified from YB2/0 cells; also called Stage 1 (Humanized heavy chain)
# B5: Stage 0-C humanized anti-VLA-4 antibody with VK1 (DQL) light chain (antibody, V domains shown)
# VH: B1 VH with N28T, I29F, K30S, S76K, D98R
# VL: B2 VL
# notes: Generated from Stage 0-A, which is Stage 1 with D94R; Kabat position 94 is linear position 98 of the humanized VH entries (CDR3 = 99-110); Human IgG1 or IgG4 / kappa; also called STAGE O-C; Stage 0 (Humanized heavy chain)
# B6: Stage 3 SSE humanized anti-VLA-4 antibody with VK1 (DQL) light chain (antibody, V domains shown)
# VH: B1 VH with A88S, A89E
# VL: B1 VL
# notes: Human IgG1 or IgG4 / kappa; also called VH-SSE
# B7: Stage 3 AS humanized anti-VLA-4 antibody with VK1 (DQL) light chain (antibody, V domains shown)
# VH: B1 VH with V24A
# VL: B1 VL
# notes: Human IgG1 or IgG4 / kappa; also called VH-AS
# B8: STAW/SVMDY humanized anti-VLA-4 antibody (antibody, V domains shown)
# VH: B1 VH with Q78T, F79A, S80W
# VL: B1 VL with D1S, Q3V, L4M, S60D, S67Y
# notes: Human IgG1 or IgG4 / kappa; also called STAW with VK2 (SVMDY) light chain
# B9: Stage 3 KRS humanized anti-VLA-4 antibody with VK1 (DQL) light chain (antibody, V domains shown)
# VH: B1 VH with R38K, P40R
# VL: B1 VL
# notes: Human IgG1 or IgG4 / kappa; also called VH-KRS
# B10: Stage 3 KAITAS humanized anti-VLA-4 antibody with VK1 (DQL) light chain (antibody, V domains shown)
# VH: B1 VH with R67K, V68A, M70I, L71T, V72A
# VL: B1 VL
# notes: Human IgG1 or IgG4 / kappa; also called VH-KAITAS
# B11: Stage 3 STAW humanized anti-VLA-4 antibody with VK1 (DQL) light chain (antibody, V domains shown)
# VH: B1 VH with Q78T, F79A, S80W
# VL: B1 VL
# notes: Human IgG1 or IgG4 / kappa; also called VH-STAW
# B12: AS/SVMDY humanized anti-VLA-4 antibody (antibody, V domains shown)
# VH: B1 VH with V24A
# VL: B1 VL with D1S, Q3V, L4M, S60D, S67Y
# notes: Human IgG1 or IgG4 / kappa; also called AS mutant heavy chain combined with the improved light chain (SVMDY); antibody produced by ATCC CRL 11175
# B13: murine HP1/2 monoclonal antibody (antibody, mouse IgG1, V domains shown)
# VH: VKLQQSGAELVKPGASVKLFCTASGFNIKDTYMHWVKQRPQQGLEWIGRIDPASGDTKYDPKFQVKATITADTSSNTAWLQLSSLTSEDTAVYYCADGMWVSTGYALDFWGQGTTVTVSS
# VL: B3 VL
# notes: The first eight residues of VH and the first four of VK in the listing are dictated by the PCR primers; also called MAb HP1/2 (anti-VLA-4); HP1/2 MAb
# Legend:
# [1] = molecular target: T1, VLA-4 (integrin alpha4 beta1) on the human B cell line Ramos (human, UniProt P13612 34-1032; P05556 21-798); assay: potency assay of Example 7; which assay is not stated
# T1 construct: whole, on cells; also called α4β1; VLA-4-expressing cells
# [2] = molecular target: T1, VLA-4 (integrin alpha4 beta1) on the …; assay: FACS, half-maximal binding to Ramos cells (n = 6)
# Protocol: (§1) Briefly, 25 μl cells (4×10^6/ml in FACS buffer (PBS 2% FBS, 0.1% NaN₃) on ice are added to 5 μl of 5 μg/ml FITC or phycoerythrin (PE) conjugated antibody in FACS buffer, and incubated in V-bottomed microtiter wells on ice for 30 minutes. To the wells, 125 μl of FACS buffer is added, the plates are centrifuged at 350×g for 5 minutes, and the supernatant is shaken off. To each well is added 125 μl FACS buffer, then the cells are transferred to 12×75 mm Falcon polystyrene tubes and resuspended to a final volume of 250 μl in FACS buffer. The mixture is analyzed on a Becton Dickinson FACStar. The results of the FACS assays as represented by the calculated half-maximal binding […] Using humanized recombinant anti-VLA-4 antibodies made according to the present invention are shown in Table III and the number (n) of experiments performed for each value is indicated for the humanized antibodies. […] Murine HP1/2 binds half-maximally to Ramos cells at 15 ng/ml. The AS/SVMDY humanized antibody binds half-maximally to Ramos cells at 12 ng/ml. Thus, the two assays (i.e., adhesion and FACS assays) show an excellent correlation for the murine antibody and the humanized AS/SVMDY antibody.
# [3] = molecular target: T1, VLA-4 (integrin alpha4 beta1) on the …; assay: adhesion assay: inhibition of Ramos cell binding to immobilized rsVCAM1 (n = 14)
# Protocol: (§2) Recombinant soluble VCAM1 was prepared and purified essentially as described by Lobb et al., 1991a. Soluble VCAM is diluted to 10 μg/ml in 0.05 M NaHCO₃, (15 mM NaHCO₃, 35 mM Na₂CO₃) pH 9.2. Then 50 μl/well is added into a Linbro Titertek polystyrene 96 well plate, flat bottom, Flow Labs catalog #76-231-05. The plate is incubated at 4° C. overnight.
# (§3) For antibody blocking studies, 100 μl/well of murine HP1/2 MAb (anti-VLA-4) typically at 10 μg/ml in RPMI, 2% FBS are added to the rsVCAM1 coated plates and incubated for 30 minutes at room temperature prior to cell binding as described above. MAb HP1/2 (anti-VLA-4) or any recombinant humanized anti-VLA-4 antibody prepared as described herein must be preincubated with labelled cells for 30 minutes at room temperature prior to the cell binding. Concentrations of the antibodies preincubated will vary, but generally concentrations were in the range of about 1 μg/ml.
# (§4) In these adhesion assays, murine HP1/2 inhibits Ramos cell binding completely at about 40 ng/ml, and half maximally at about 15 ng/ml ([…]). The results of adhesion assays as represented by the calculated half-maximal binding constants using humanized recombinant anti-VLA-4 antibodies made according to the present invention are shown in Table III. The number-(n) of experiments performed for each value is indicated for the recombinant humanized antibodies.
# [4] = molecular target: T1, VLA-4 (integrin alpha4 beta1) on the …; assay: adhesion assay: inhibition of Ramos cell binding to immobilized rsVCAM1
# Protocol: as §2, §3
# (§5) The potency of recombinant Stage 0, Stage 1, Stage 2 and Stage 3 antibodies having the VK1 (DQL) light chain that had been purified from stably transfected YB2/0 cell lines was measured in the adhesion assay, as shown in Table III.
# [5] = molecular target: T1, VLA-4 (integrin alpha4 beta1) on the …; assay: adhesion assay: inhibition of Ramos cell binding to immobilized rsVCAM1 (n = 6)
# Protocol: as §2, §3, §5
# [6] = molecular target: T1, VLA-4 (integrin alpha4 beta1) on the …; assay: combination of adhesion and FACS assays (n = 3)
# Protocol: as §2, §3
# as §1, with “Thus, the two assays (i.e., adhesion and FACS assays) show an excellent correlation for the murine antibody and the humanized AS/SVMDY antibody.” left out
# [7] = molecular target: T1, VLA-4 (integrin alpha4 beta1) on the …; assay: FACS, half-maximal binding to Ramos cells (n = 1)
# Protocol: as §1
# [8] = molecular target: T1, VLA-4 (integrin alpha4 beta1) on the …; assay: adhesion assay: inhibition of Ramos cell binding to immobilized rsVCAM1 (n = 2)
# Protocol: as §2, §3
# [9] = molecular target: T1, VLA-4 (integrin alpha4 beta1) on the …; assay: FACS, half-maximal binding to Ramos cells (n = 2)
# Protocol: as §1
# [10] = molecular target: T1, VLA-4 (integrin alpha4 beta1) on the …; assay: FACS, half-maximal binding to Ramos cells (n = 3)
# Protocol: as §1
# [11] = molecular target: T1, VLA-4 (integrin alpha4 beta1) on the …; assay: adhesion assay: inhibition of Ramos cell binding to immobilized rsVCAM1 (n = 4)
# Protocol: as §2, §3, §5
# [12] = molecular target: T1, VLA-4 (integrin alpha4 beta1) on the …; assay: adhesion assay: inhibition of Ramos cell binding to immobilized rsVCAM1 (n = 3)
# Protocol: as §2, §3, §5
# [13] = molecular target: T1, VLA-4 (integrin alpha4 beta1) on the …; assay: FACS, half-maximal binding to Ramos cells
# Protocol: as §1
# [14] = molecular target: T1, VLA-4 (integrin alpha4 beta1) on the …; assay: adhesion assay: inhibition of Ramos cell binding to immobilized rsVCAM1; molar value as printed
# Protocol: as §2, §3, §4
# T1 sequence (P13612 34-1032, chain 1 of 2): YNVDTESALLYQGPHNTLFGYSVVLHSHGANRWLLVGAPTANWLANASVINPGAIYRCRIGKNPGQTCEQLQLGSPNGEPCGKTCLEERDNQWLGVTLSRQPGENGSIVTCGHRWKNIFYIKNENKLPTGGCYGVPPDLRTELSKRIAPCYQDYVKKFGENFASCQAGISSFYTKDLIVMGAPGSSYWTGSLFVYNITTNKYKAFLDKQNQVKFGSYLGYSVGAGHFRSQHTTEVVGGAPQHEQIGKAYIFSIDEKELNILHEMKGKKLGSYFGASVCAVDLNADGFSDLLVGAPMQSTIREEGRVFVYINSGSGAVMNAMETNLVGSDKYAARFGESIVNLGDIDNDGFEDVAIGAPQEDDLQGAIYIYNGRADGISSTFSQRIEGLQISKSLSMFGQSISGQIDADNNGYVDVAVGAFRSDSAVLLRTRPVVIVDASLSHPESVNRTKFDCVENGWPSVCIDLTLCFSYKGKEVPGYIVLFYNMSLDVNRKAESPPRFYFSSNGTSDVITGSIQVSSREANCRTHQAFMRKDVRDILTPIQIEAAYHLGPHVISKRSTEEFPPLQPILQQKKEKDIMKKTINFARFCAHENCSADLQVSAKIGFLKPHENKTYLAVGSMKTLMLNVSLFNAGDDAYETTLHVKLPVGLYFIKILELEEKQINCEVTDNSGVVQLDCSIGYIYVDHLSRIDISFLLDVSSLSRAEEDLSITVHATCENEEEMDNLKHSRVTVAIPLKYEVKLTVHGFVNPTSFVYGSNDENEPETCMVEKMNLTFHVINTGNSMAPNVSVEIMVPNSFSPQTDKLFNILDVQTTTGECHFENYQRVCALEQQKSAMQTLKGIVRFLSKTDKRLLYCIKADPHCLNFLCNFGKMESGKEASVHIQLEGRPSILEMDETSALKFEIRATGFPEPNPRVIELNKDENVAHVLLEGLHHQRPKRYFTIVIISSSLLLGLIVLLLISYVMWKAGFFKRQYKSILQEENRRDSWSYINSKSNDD
# T1 sequence (P05556 21-798, chain 2 of 2): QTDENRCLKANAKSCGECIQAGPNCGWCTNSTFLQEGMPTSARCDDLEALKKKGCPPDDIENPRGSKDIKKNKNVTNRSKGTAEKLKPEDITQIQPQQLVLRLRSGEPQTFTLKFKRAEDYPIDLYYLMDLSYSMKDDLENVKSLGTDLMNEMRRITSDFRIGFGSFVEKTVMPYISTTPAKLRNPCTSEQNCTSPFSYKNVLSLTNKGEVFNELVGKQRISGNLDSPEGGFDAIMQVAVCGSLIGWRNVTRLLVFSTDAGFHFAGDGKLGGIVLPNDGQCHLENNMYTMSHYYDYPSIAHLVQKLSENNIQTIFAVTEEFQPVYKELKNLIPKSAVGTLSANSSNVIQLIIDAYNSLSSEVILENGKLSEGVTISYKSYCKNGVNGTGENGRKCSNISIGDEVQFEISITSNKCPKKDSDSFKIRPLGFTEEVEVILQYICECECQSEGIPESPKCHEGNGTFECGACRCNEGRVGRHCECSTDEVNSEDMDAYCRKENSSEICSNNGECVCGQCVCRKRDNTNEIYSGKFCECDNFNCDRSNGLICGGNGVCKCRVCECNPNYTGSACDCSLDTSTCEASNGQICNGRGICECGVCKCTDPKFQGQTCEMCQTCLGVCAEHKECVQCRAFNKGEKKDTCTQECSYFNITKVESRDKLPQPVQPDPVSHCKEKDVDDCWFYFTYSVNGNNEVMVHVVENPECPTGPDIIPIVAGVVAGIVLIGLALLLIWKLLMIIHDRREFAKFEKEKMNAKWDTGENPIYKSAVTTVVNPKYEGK
binder,measurement,setting,value
B1,fold lower potency than murine HP1/2,[1],~4 fold
same,EC50,[2],0.047 µg/mL
same,IC50,[3],0.056 µg/mL
B2,IC50,[4],> 1 µg/mL
B3,fold lower potency than murine HP1/2,[1],~2.5 fold
B4,IC50,[5],0.228 µg/mL
B5,IC50,[4],> 1 µg/mL
B6,half-maximal binding constant (adhesion and FACS combined),[6],80 ng/mL
same,EC50,[7],0.04 µg/mL
same,IC50,[8],0.1 µg/mL
B7,EC50,[9],0.014 µg/mL
same,IC50,[8],0.028 µg/mL
B8,EC50,[10],0.035 µg/mL
same,IC50,[11],0.025 µg/mL
B9,half-maximal binding constant (adhesion and FACS combined),[6],57 ng/mL
same,EC50,[7],0.07 µg/mL
same,IC50,[8],0.05 µg/mL
B10,half-maximal binding constant (adhesion and FACS combined),[6],90 ng/mL
same,EC50,[7],0.1 µg/mL
same,IC50,[8],0.085 µg/mL
B11,EC50,[10],0.033 µg/mL
same,IC50,[12],0.03 µg/mL
B12,EC50,[9],0.012 µg/mL
same,IC50,[8],0.012 µg/mL
B13,EC50,[13],0.015 µg/mL
same,IC50,[4],0.015 µg/mL
same,IC50,[14],~10 µM
